# Results: patent US20240000839A1 (CELLULAR BIOMEDICINE GROUP HK, published 2024)
# T1: TNFRSF17 (Q02223), i.e., BCMA (UniProt Q02223 1-184)
# T1 construct: whole, on cells; also called B cell maturation antigen; CD269
# T1 sequence (looked up): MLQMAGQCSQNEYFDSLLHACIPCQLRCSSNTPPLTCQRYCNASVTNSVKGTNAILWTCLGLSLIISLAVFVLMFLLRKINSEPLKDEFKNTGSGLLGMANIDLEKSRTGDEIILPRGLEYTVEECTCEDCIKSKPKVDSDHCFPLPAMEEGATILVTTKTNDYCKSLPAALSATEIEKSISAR
# B1: B20-scFv-rabFc (Fc fusion)
# scFv: DIQMTQSPSSLSASVGDRVTITCRASQGISNYLNWYQQKPGKAPKPLIYYTSNLQSGVPSRFSGSGSGTDYTLTISSLQPEDFATYYCMGQTISSYTFGQGTKLEIKGGGGSGGGGSGGGGSEVQLVESGGGLVQPGGSLRLSCAASGFTFSNFDMAWVRQAPGKGLVWVSSITTGADHAIYADSVKGRFTISRDNAKNTLYLQMNSLRAEDTAVYYCVRHGYYDGYHLFDYWGQGTLVTVSS
# notes: not shown: rabbit Fc (rabFc)
# Target: T1, TNFRSF17 (Q02223), i.e., BCMA
# Test: flow cytometry, HEK293T membrane protein array, 20 ug/mL
# Protocol: The light chain variable region of SEQ ID NO: 1 and the heavy chain variable region of SEQ ID NO: 2 were used to prepare a single chain antibody B20-scFv-rabFc, and membrane protein array experiment was performed.
# 20 ug/mL of B20-scFv-rabFc was added to HEK293T cell array transiently transfected with 5344 membrane proteins, respectively.
binder,measurement,value
B1,binding result,binds
